Data published in US20140087995A1 (published 2014).
Numbered stars: 1 amine (or outer) side, 2 acyl side, 3 side chain; on linkers, the order of the positions; unused ones are H or OH. Bridge positions count the residues as written; N and C are the ends. * marks the point of attachment. C20 diacid = O=C(O)CCCCCCCCCCCCCCCCCCC(=O)*; γGlu = O=C(O)[C@H](CCC(=O)[*:2])N[*:1]

B1: N^α1 N^α1-[(4S)-4-carboxy-4-[[(4S)-4-carboxy-4-(19-carboxynonadecanoylamino)butanoyl]amino]butanoyl]-[Glu14,Arg17,Pro21,Pro27]-h-amylin (peptide)
peptide: {C20 diacid-γGlu-γGlu}-KCNTATCATQRLAEFLRHSSPNFGAIPSSTNVGSNTY-NH2
modifications: disulfide 2-7
SMILES: CC[C@H](C)[C@H](NC(=O)[C@H](C)NC(=O)CNC(=O)[C@H](Cc1ccccc1)NC(=O)[C@H](CC(N)=O)NC(=O)[C@@H]1CCCN1C(=O)[C@H](CO)NC(=O)[C@H](CO)NC(=O)[C@H](Cc1c[nH]cn1)NC(=O)[C@H](CCCNC(=N)N)NC(=O)[C@H](CC(C)C)NC(=O)[C@H](Cc1ccccc1)NC(=O)[C@H](CCC(=O)O)NC(=O)[C@H](C)NC(=O)[C@H](CC(C)C)NC(=O)[C@H](CCCNC(=N)N)NC(=O)[C@H](CCC(N)=O)NC(=O)[C@@H](NC(=O)[C@H](C)NC(=O)[C@@H]1CSSC[C@H](NC(=O)[C@H](CCCCN)NC(=O)CC[C@H](NC(=O)CC[C@H](NC(=O)CCCCCCCCCCCCCCCCCCC(=O)O)C(=O)O)C(=O)O)C(=O)N[C@@H](CC(N)=O)C(=O)N[C@@H]([C@@H](C)O)C(=O)N[C@@H](C)C(=O)N[C@@H]([C@@H](C)O)C(=O)N1)[C@@H](C)O)C(=O)N1CCC[C@H]1C(=O)N[C@@H](CO)C(=O)N[C@@H](CO)C(=O)N[C@H](C(=O)N[C@@H](CC(N)=O)C(=O)N[C@H](C(=O)NCC(=O)N[C@@H](CO)C(=O)N[C@@H](CC(N)=O)C(=O)N[C@H](C(=O)N[C@@H](Cc1ccc(O)cc1)C(N)=O)[C@@H](C)O)C(C)C)[C@@H](C)O
notes: also called compound 15
B2: N^α1-[(4S)-4-carboxy-4-(19-carboxynonadecanoylamino)butanoyl]-[His14,Arg17,Pro21,Pro27,Glu35]-h-amylin (peptide)
peptide: {C20 diacid-γGlu}-KCNTATCATQRLAHFLRHSSPNFGAIPSSTNVGSETY-NH2
modifications: disulfide 2-7
SMILES: CC[C@H](C)[C@H](NC(=O)[C@H](C)NC(=O)CNC(=O)[C@H](Cc1ccccc1)NC(=O)[C@H](CC(N)=O)NC(=O)[C@@H]1CCCN1C(=O)[C@H](CO)NC(=O)[C@H](CO)NC(=O)[C@H](Cc1c[nH]cn1)NC(=O)[C@H](CCCNC(=N)N)NC(=O)[C@H](CC(C)C)NC(=O)[C@H](Cc1ccccc1)NC(=O)[C@H](Cc1c[nH]cn1)NC(=O)[C@H](C)NC(=O)[C@H](CC(C)C)NC(=O)[C@H](CCCNC(=N)N)NC(=O)[C@H](CCC(N)=O)NC(=O)[C@@H](NC(=O)[C@H](C)NC(=O)[C@@H]1CSSC[C@H](NC(=O)[C@H](CCCCN)NC(=O)CC[C@H](NC(=O)CCCCCCCCCCCCCCCCCCC(=O)O)C(=O)O)C(=O)N[C@@H](CC(N)=O)C(=O)N[C@@H]([C@@H](C)O)C(=O)N[C@@H](C)C(=O)N[C@@H]([C@@H](C)O)C(=O)N1)[C@@H](C)O)C(=O)N1CCC[C@H]1C(=O)N[C@@H](CO)C(=O)N[C@@H](CO)C(=O)N[C@H](C(=O)N[C@@H](CC(N)=O)C(=O)N[C@H](C(=O)NCC(=O)N[C@@H](CO)C(=O)N[C@@H](CCC(=O)O)C(=O)N[C@H](C(=O)N[C@@H](Cc1ccc(O)cc1)C(N)=O)[C@@H](C)O)C(C)C)[C@@H](C)O
notes: also called compound 30
B3: N^α1-[(4S)-4-carboxy-4-(19-carboxynonadecanoylamino)butanoyl]-[Arg17,Pro21,Pro27,Glu35]-h-amylin (peptide)
peptide: KCNTATCATQRLANFLRHSSPNFGAIPSSTNVGSETY
modifications: C20 diacid-gGlu on alpha amino group of the N-terminal residue; Cys2-Cys7 disulfide and C-terminal amide as in h-amylin
notes: also called compound 23
B4: N^α1-[(4S)-4-carboxy-4-(19-carboxynonadecanoylamino)butanoyl]-[Arg17,Pro21,Pro27,His34]-h-amylin (peptide)
peptide: KCNTATCATQRLANFLRHSSPNFGAIPSSTNVGHNTY
modifications: C20 diacid-gGlu on alpha amino group of the N-terminal residue; Cys2-Cys7 disulfide and C-terminal amide as in h-amylin
notes: also called compound 40
B5: N^α1-[(4S)-4-carboxy-4-(19-carboxynonadecanoylamino)butanoyl]-[Glu14,Arg17,Pro21,Pro27,Pro31]-h-amylin (peptide)
peptide: {C20 diacid-γGlu}-KCNTATCATQRLAEFLRHSSPNFGAIPSSTPVGSNTY-NH2
modifications: disulfide 2-7
SMILES: CC[C@H](C)[C@H](NC(=O)[C@H](C)NC(=O)CNC(=O)[C@H](Cc1ccccc1)NC(=O)[C@H](CC(N)=O)NC(=O)[C@@H]1CCCN1C(=O)[C@H](CO)NC(=O)[C@H](CO)NC(=O)[C@H](Cc1c[nH]cn1)NC(=O)[C@H](CCCNC(=N)N)NC(=O)[C@H](CC(C)C)NC(=O)[C@H](Cc1ccccc1)NC(=O)[C@H](CCC(=O)O)NC(=O)[C@H](C)NC(=O)[C@H](CC(C)C)NC(=O)[C@H](CCCNC(=N)N)NC(=O)[C@H](CCC(N)=O)NC(=O)[C@@H](NC(=O)[C@H](C)NC(=O)[C@@H]1CSSC[C@H](NC(=O)[C@H](CCCCN)NC(=O)CC[C@H](NC(=O)CCCCCCCCCCCCCCCCCCC(=O)O)C(=O)O)C(=O)N[C@@H](CC(N)=O)C(=O)N[C@@H]([C@@H](C)O)C(=O)N[C@@H](C)C(=O)N[C@@H]([C@@H](C)O)C(=O)N1)[C@@H](C)O)C(=O)N1CCC[C@H]1C(=O)N[C@@H](CO)C(=O)N[C@@H](CO)C(=O)N[C@H](C(=O)N1CCC[C@H]1C(=O)N[C@H](C(=O)NCC(=O)N[C@@H](CO)C(=O)N[C@@H](CC(N)=O)C(=O)N[C@H](C(=O)N[C@@H](Cc1ccc(O)cc1)C(N)=O)[C@@H](C)O)C(C)C)[C@@H](C)O
notes: also called compound 31
B6: N^α1-[(4S)-4-carboxy-4-(19-carboxynonadecanoylamino)butanoyl]-[Arg17,Pro21,Pro27,Arg34]-h-amylin (peptide)
peptide: KCNTATCATQRLANFLRHSSPNFGAIPSSTNVGRNTY
modifications: C20 diacid-gGlu on alpha amino group of the N-terminal residue; Cys2-Cys7 disulfide and C-terminal amide as in h-amylin
notes: also called compound 39
B7: N^α1-[2-[2-[2-[[2-[2-[2-[[(4S)-4-carboxy-4-(19-carboxynonadecanoylamino)butanoyl]amino]ethoxy]ethoxy]acetyl]amino]ethoxy]ethoxy]acetyl]-[Glu14,Arg17,Pro21,Pro27 … (peptide)
peptide: KCNTATCATQRLAEFLRHSSPNFGAIPSSTNVGSNTY
modifications: C20 diacid-gGlu-2xOEG on alpha amino group of the N-terminal residue; Cys2-Cys7 disulfide and C-terminal amide as in h-amylin
notes: also called compound 19
B8: N^α1-[(4S)-4-carboxy-4-(19-carboxynonadecanoylamino)butanoyl]-[Glu14,Arg17,Pro21,Pro27,Arg35]-h-amylin (peptide)
peptide: {C20 diacid-γGlu}-KCNTATCATQRLAEFLRHSSPNFGAIPSSTNVGSRTY-NH2
modifications: disulfide 2-7
SMILES: CC[C@H](C)[C@H](NC(=O)[C@H](C)NC(=O)CNC(=O)[C@H](Cc1ccccc1)NC(=O)[C@H](CC(N)=O)NC(=O)[C@@H]1CCCN1C(=O)[C@H](CO)NC(=O)[C@H](CO)NC(=O)[C@H](Cc1c[nH]cn1)NC(=O)[C@H](CCCNC(=N)N)NC(=O)[C@H](CC(C)C)NC(=O)[C@H](Cc1ccccc1)NC(=O)[C@H](CCC(=O)O)NC(=O)[C@H](C)NC(=O)[C@H](CC(C)C)NC(=O)[C@H](CCCNC(=N)N)NC(=O)[C@H](CCC(N)=O)NC(=O)[C@@H](NC(=O)[C@H](C)NC(=O)[C@@H]1CSSC[C@H](NC(=O)[C@H](CCCCN)NC(=O)CC[C@H](NC(=O)CCCCCCCCCCCCCCCCCCC(=O)O)C(=O)O)C(=O)N[C@@H](CC(N)=O)C(=O)N[C@@H]([C@@H](C)O)C(=O)N[C@@H](C)C(=O)N[C@@H]([C@@H](C)O)C(=O)N1)[C@@H](C)O)C(=O)N1CCC[C@H]1C(=O)N[C@@H](CO)C(=O)N[C@@H](CO)C(=O)N[C@H](C(=O)N[C@@H](CC(N)=O)C(=O)N[C@H](C(=O)NCC(=O)N[C@@H](CO)C(=O)N[C@@H](CCCNC(=N)N)C(=O)N[C@H](C(=O)N[C@@H](Cc1ccc(O)cc1)C(N)=O)[C@@H](C)O)C(C)C)[C@@H](C)O
notes: also called compound 16
B9: N^α1-[(4S)-4-carboxy-4-(19-carboxynonadecanoylamino)butanoyl]-[Arg17,Pro21,Pro27,Pro31,Glu35]-h-amylin (peptide)
peptide: {C20 diacid-γGlu}-KCNTATCATQRLANFLRHSSPNFGAIPSSTPVGSETY-NH2
modifications: disulfide 2-7
SMILES: CC[C@H](C)[C@H](NC(=O)[C@H](C)NC(=O)CNC(=O)[C@H](Cc1ccccc1)NC(=O)[C@H](CC(N)=O)NC(=O)[C@@H]1CCCN1C(=O)[C@H](CO)NC(=O)[C@H](CO)NC(=O)[C@H](Cc1c[nH]cn1)NC(=O)[C@H](CCCNC(=N)N)NC(=O)[C@H](CC(C)C)NC(=O)[C@H](Cc1ccccc1)NC(=O)[C@H](CC(N)=O)NC(=O)[C@H](C)NC(=O)[C@H](CC(C)C)NC(=O)[C@H](CCCNC(=N)N)NC(=O)[C@H](CCC(N)=O)NC(=O)[C@@H](NC(=O)[C@H](C)NC(=O)[C@@H]1CSSC[C@H](NC(=O)[C@H](CCCCN)NC(=O)CC[C@H](NC(=O)CCCCCCCCCCCCCCCCCCC(=O)O)C(=O)O)C(=O)N[C@@H](CC(N)=O)C(=O)N[C@@H]([C@@H](C)O)C(=O)N[C@@H](C)C(=O)N[C@@H]([C@@H](C)O)C(=O)N1)[C@@H](C)O)C(=O)N1CCC[C@H]1C(=O)N[C@@H](CO)C(=O)N[C@@H](CO)C(=O)N[C@H](C(=O)N1CCC[C@H]1C(=O)N[C@H](C(=O)NCC(=O)N[C@@H](CO)C(=O)N[C@@H](CCC(=O)O)C(=O)N[C@H](C(=O)N[C@@H](Cc1ccc(O)cc1)C(N)=O)[C@@H](C)O)C(C)C)[C@@H](C)O
notes: also called compound 28

target: T1, human amylin receptor (human, UniProt P30988 25-474; O60896 24-148, limits assumed); assay: SPA competition vs 125I-rat amylin, membranes of amylin 3(a) receptor BHK cells (Assay V)
T1 construct: whole, on cells; Used as cell membranes prepared from the Amylin 3(a)/CRE-luc BHK cells (Assay V); also called hAmylin-R; hAmylinR
T1 sequence (looked up) 1: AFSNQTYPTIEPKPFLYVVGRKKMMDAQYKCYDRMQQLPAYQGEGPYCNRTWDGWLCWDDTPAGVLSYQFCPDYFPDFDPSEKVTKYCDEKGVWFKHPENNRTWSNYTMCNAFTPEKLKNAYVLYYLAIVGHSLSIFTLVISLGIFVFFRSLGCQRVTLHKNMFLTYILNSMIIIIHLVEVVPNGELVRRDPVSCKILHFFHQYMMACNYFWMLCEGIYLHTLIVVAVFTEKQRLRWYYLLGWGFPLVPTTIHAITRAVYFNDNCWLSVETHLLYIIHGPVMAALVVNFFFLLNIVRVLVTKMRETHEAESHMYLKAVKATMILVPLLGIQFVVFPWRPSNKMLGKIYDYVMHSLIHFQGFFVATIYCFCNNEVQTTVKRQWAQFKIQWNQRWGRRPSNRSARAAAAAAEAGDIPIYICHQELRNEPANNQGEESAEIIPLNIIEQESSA
T1 sequence (looked up) 2: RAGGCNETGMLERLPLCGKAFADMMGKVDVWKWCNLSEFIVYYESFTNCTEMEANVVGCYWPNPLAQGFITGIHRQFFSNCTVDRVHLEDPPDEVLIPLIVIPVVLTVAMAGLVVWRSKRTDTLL
Method: The binding assay was performed using scintillation proximity assay (SPA) beads (RPNQ0001) from PerkinElmer and cell membranes from the Amylin 3(a)/CRE-luc cells (as described in Assay (II)) were used. Membranes were prepared in the following way; the cells were rinsed with PBS and incubated with Versene for approximately 5 min before harvesting. The cells were flushed with PBS and the cell-suspension was centrifuged for 5 min at 1000 rpm. Cells were homogenized (ultrathurrax) in a buffer containing 20 mM Na-HEPES and 10 mM EDTA (pH 7.4) and centrifuged at 20.000 rpm for 15 min. The resulting pellet was resuspended, homogenized and centrifuged (20.000 rpm, 15 min) in a buffer containing 20 mM Na-HEPES and 0.1 mM EDTA (pH 7.4, buffer 2). The resulting pellet was resuspended in buffer 2 and protein concentration was measured (BCA protein Assay, Pierce). The homogenate was kept cold during the whole procedure. The membranes were kept at −80° C. until use. The assay was performed in a 384 well Optiplate (PerkinElmer) in a total volume of 40 ul. Membranes were mixed with SPA beads. Final concentration of membranes 35 ng/μL final and SPA beads was 0.05 mg/well. Test-compounds were dissolved in DMSO and further diluted in assay buffer (50 mM Hepes, pH 7.4, 1 mM CaCl2, 5 mM MgCl₂, 0.1% OA and 0.02% Tween20). […] The final mixture was incubated with shaking at 400 rpm for 120 min at 25° C. prior to centrifugation (1500 rpm, 10 min). Samples were analyzed on TopCounter™ (Packard). The IC₅₀ was calculated using (one site binding competition analysis) GraphPad Prism5 as a measure of receptor affinity.

In order of rising IC50:
1. B5  0.204 nM
2. B4  0.549 nM
3. B7  0.556 nM
4. B1  0.597 nM
5. B9  0.61 nM
6. B6  0.665 nM
7. B3  0.871 nM
8. B8  0.894 nM
9. B2  0.919 nM
